Results: patent US20190112392A1 (Ablynx, published 2019)
Where two headings read alike, the source gives them in different places.

T1: human CD20 on cells (human, UniProt P11836 1-297)
T1 sequence (looked up): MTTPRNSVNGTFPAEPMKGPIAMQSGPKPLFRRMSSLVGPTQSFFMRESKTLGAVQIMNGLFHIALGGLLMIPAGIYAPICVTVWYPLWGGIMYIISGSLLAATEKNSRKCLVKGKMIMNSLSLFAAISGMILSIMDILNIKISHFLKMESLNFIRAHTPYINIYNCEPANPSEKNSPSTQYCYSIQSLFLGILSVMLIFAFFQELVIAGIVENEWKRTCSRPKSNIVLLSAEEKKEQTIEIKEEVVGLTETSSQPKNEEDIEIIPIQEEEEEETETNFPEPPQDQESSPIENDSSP

T2: T cell receptor alpha/beta on purified primary human T cells (human, UniProt P01848 1-140; P01850 1-176)
T2 construct: whole, on cells; also called human primary T cells
T2 TCR alpha (looked up): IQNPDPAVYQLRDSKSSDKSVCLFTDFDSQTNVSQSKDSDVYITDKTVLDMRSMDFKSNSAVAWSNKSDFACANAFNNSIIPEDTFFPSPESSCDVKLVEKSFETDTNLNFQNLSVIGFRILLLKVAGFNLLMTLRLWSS
T2 TCR beta (looked up): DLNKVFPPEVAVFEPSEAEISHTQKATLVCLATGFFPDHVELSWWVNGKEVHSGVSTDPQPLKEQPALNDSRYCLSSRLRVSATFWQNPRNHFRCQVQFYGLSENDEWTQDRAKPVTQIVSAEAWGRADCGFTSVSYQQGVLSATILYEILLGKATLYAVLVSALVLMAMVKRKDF


Assays:
[1] = molecular target: T3, EGFR on cells (UniProt P00533 25-1210, limits assumed); assay: cell-based or functional assay
[2] = molecular target: T3, EGFR on cells; assay: flow cytometry, HER14 cells
[3] = molecular target: T1, human CD20 on cells; assay: cell-based or functional assay
[4] = molecular target: T1, human CD20 on cells; assay: cell-based or functional assay; remark: listed apart in the source
[5] = molecular target: T2, T cell receptor alpha/beta on purified …; assay: flow cytometry, purified primary human T cells
[6] = molecular target: T1, human CD20 on cells; assay: flow cytometry, Ramos cells
[7] = molecular target: T4, T cell receptor alpha/beta on primary cynomolgus T cells (cynomolgus); assay: cell-based or functional assay
[8] = molecular target: T4, T cell receptor alpha/beta on primary …; assay: cell-based or functional assay; remark: listed apart in the source
[9] = molecular target: T5, human CD3 expressed on HEK293H cells (human, UniProt P04234 22-171; P09693 23-182; P07766 23-207; P20963 22-164); assay: flow cytometry, HEK293H human CD3 cells
T5 construct: also called HEK293H human CD3; HEK293H CD3
Protocol: (§1) Binding of purified monovalent anti-TCR Nanobodies to human TCR(2IAN)/CD3 expressed on HEK293H cells was evaluated and compared with the binding to HEK293H cells transfected with human CD3 in flow cytometry, as outlined in Example 5. Dilution series of anti-TCR Nanobodies starting from 1 μM were applied to the cells. The parental HEK293H cell line was included as TCR/CD3 negative cell line.
Nanobodies clearly bound to human TCR(2IAN)/CD3 expressed on HEK293H but not to the HEK293H cells transfected with human CD3 only, nor to the HEK293H parental cell line. The EC50 values obtained from the dose response curve are depicted in Table C-2.

[10] = molecular target: T2, T cell receptor alpha/beta on purified …; assay: flow cytometry, purified primary human T cells
Protocol: Periplasmic extracts were screened for cell expressed TCR/CD3 binding using human TCR/CD3 transfected CHO-K1 or HEK293H cells and the respective CHO-K1 or HEK293H reference cell line in a mixed cell line setup. To this end, a large batch of the reference cell lines were labelled with 8 μM PKH26 and frozen. 5×10⁴ PKH labelled reference cells were mixed with 5×10⁴ target cells and incubated with periplasmic extracts for 30 min at 4′C, and washed 3 times. […] Samples were washed, resuspended in FACS Buffer (D-PBS from Gibco, with 10% FBS from Sigma and 0.05% sodium azide from Merck) and then analysed via a BD FACSArray. […] In this gate, 20,000 cells were counted during acquisition. Based on PKH26-SSC distribution, the PKH labelled parental population and the human TCR/CD3 unlabelled target population was selected. For these 2 populations the mean APC value was calculated.
Binding of purified monovalent anti-TCR Nanobodies to human TCR(2XN9)/CD3 expressed on CHO-K1 cells and to purified primary human T cells was evaluated in flow cytometry as outlined in Example 4.1.

[11] = molecular target: T5, human CD3 expressed on HEK293H cells; assay: flow cytometry on HEK293H human CD3 cells, MCF
Protocol: as §1

T5 sequence (P04234 22-171 limits assumed, chain 1 of 4): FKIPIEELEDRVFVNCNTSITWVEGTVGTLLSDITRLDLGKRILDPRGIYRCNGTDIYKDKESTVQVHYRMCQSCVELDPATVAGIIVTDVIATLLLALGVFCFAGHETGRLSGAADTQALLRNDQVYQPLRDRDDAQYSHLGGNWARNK
T5 sequence (P09693 23-182 limits assumed, chain 2 of 4): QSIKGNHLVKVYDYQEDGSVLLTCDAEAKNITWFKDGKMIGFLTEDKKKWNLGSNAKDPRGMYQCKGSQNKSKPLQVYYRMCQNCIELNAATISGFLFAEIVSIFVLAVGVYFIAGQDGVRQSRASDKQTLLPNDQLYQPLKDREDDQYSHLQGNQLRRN
T5 sequence (P07766 23-207 limits assumed, chain 3 of 4): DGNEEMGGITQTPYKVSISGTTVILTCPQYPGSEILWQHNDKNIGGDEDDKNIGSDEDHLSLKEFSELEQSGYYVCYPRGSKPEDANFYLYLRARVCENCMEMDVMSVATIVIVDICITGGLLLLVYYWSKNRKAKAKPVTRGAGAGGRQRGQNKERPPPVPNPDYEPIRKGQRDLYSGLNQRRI
T5 sequence (P20963 22-164 limits assumed, chain 4 of 4): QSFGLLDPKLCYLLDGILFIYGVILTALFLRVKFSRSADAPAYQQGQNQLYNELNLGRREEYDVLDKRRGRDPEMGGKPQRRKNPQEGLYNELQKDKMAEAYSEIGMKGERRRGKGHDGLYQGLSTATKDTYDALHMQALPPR

Row | Binder | IC50, xCELLigence human T cell mediated killing of HER14 cells, E:T 15, 50-60 h [1] [nM] | EC50 [2] [nM] | Top [2] | IC50, xCELLigence human T cell mediated CHO-K1 CD20 killing assay, E:T 30:1, 44 h [3] [nM] | IC50, flow cytometry based human T cell mediated Ramos killing assay, E:T 10:1 [4] [nM] | EC50 [5] [nM] | EC50 [6] [nM] | IC50, flow cytometry based cynomolgus T cell mediated B cell (Ramos) killing assay [7] [nM] | IC50, xCELLigence cynomolgus T cell mediated CHO-K1 human CD20 killing assay, E:T 30:1 [8] [nM] | MCF at 1 µM [9] [MCF] | EC50 [10] [nM] | binding result [11]
1 | T017000107 (other, EGFR x CEACAM5 x TCR multispecific Nanobody construct; entry includes the FLAG3-HIS6 tag; also called EGFR038G07-35GS-NbCEA5-35GS-T0170056G05-FLAG3-HIS6) EVQLVESGGGLVQAGGSLRLSCAASGRTFSSYVMGWFRQATGKEREFVATIAWDSGSTYYADSVKGRFTISRDNAKNTVHLQMNSLKPEDTAVYYCAASYNVYYNNYYYPISRDEYDYWGQGTLVTVSSGGGGSGGGGSGGGGSGGGGSGGGGSGGGGSGGGGSEVQLVESGGGSVQAGGSLRLSCAASGDTYGSYWMGWFRQAPGKEREGVAAINRGGGYTVYADSVKGRFTISRDTAKNTVYLQMNSLRPDDTADYYCAASGVLGGLHEDWFNYWGQGTLVTVSSGGGGSGGGGSGGGGSGGGGSGGGGSGGGGSGGGGSEVQLVESGGGLVQPGGSLRLSCVASGDVHKINFLGWYRQAPGKEREKVAHISIGDQTDYADSAKGRFTISRDESKNMVYLQMNSLKPEDTAVYFCRAFSRIYPYDYWGQGTLVTVSSGAADYKDHDGDYKDHDIDYKDDDDKGAAHHHHHH | 0.14 | 1.6 | 146000 |  |  |  |  |  |  |  |  | 
2 | T017000051 (bispecific antibody, CD20 x TCR bispecific Nanobody construct (cluster C); entry includes the FLAG3-HIS6 tag; also called 20CD019C07-35GS-T0170061G01-FLAG3-HIS6) EVQLVESGGGLVQPGGSLRLSCTFSGGTFSSYTMGWFRQAPGKEREFVAEVRWGGVTTYSNSLKDRFSISEDSVKNAVYLQMNSLKPEDTAVYYCAAVRQMYMTVVPDYWGQGTLVTVSSGGGGSGGGGSGGGGSGGGGSGGGGSGGGGSGGGGSEVQLVESGGGLVQPGGSLRLSCAASGEIGRINFYRWYRQAPGNQREVVATITIADKTDYADSAKGRFTISRDESRNMVYLQMSSLKPEDTAVYFCHAGSRLYPYDYWGQGTLVTVSSGAADYKDHDGDYKDHDIDYKDDDDKGAAHHHHHH |  |  |  | 27 | 0.57 | > 100 | 2.7 |  |  |  |  | 
3 | T017000031 (bispecific antibody, TCR x CD20 bispecific Nanobody construct (cluster B); entry includes the FLAG3-HIS6 tag; also called T0170055C07-35GS-20CD019C07-FLAG3-HIS6) EVQLVESGGGLVQPGGSLRLSCITSGETFKINIWGWYRQAPGKQRELVASLTIGGATNYADSVKGRFTISEDSAKNTVYLQMNSLKPEDTAVYFCNAKSRLYPYDYWGQGTLVTVSSGGGGSGGGGSGGGGSGGGGSGGGGSGGGGSGGGGSEVQLVESGGGLVQPGGSLRLSCTFSGGTFSSYTMGWFRQAPGKEREFVAEVRWGGVTTYSNSLKDRFSISEDSVKNAVYLQMNSLKPEDTAVYYCAAVRQMYMTVVPDYWGQGTLVTVSSGAADYKDHDGDYKDHDIDYKDDDDKGAAHHHHHH |  |  |  | 2.1 | 1.1 | 350 | 23 | 0.79 | 1.2 |  |  | 
4 | T017000055 (bispecific antibody, entry includes the FLAG3-HIS6 tag; also called 20CD019C07-35GS-T0170055A02-FLAG3-HIS6) EVQLVESGGGLVQPGGSLRLSCTFSGGTFSSYTMGWFRQAPGKEREFVAEVRWGGVTTYSNSLKDRFSISEDSVKNAVYLQMNSLKPEDTAVYYCAAVRQMYMTVVPDYWGQGTLVTVSSGGGGSGGGGSGGGGSGGGGSGGGGSGGGGSGGGGSEVQLVESGGGLVQPGGSLRLSCAASGDVHKINILGWYRQAPAKEREMVAHITIGDATDYADSAKGRFTISRDEAKNMVYLQMNSLKPEDTAVYFCRAYSRIYPYNYWGQGTLVTVSSGAADYKDHDGDYKDHDIDYKDDDDKGAAHHHHHH |  |  |  | 1.4 | 0.53 | 130 | 1.8 | 0.569 | 0.99 |  |  | 
5 | T0170061G01 (VHH, Monovalent anti-TCR Nanobody, cluster C; expressed in E. coli as triple Flag, His6-tagged protein; also called T0170PMP061G01; not shown: C-terminal triple Flag-His6 tag of the E. coli-expressed monovalent) VHH: EVQLVESGGGLVQPGGSLRLSCAASGEIGRINFYRWYRQAPGNQREVVATITIADKTDYADSAKGRFTISRDESRNMVYLQMSSLKPEDTAVYFCHAGSRLYPYDYWGQGTQVTVSS |  |  |  |  |  |  |  |  |  | 495 | > 100 | no binding (tested: 1e-6 M)
6 | T017000038 (bispecific antibody, TCR x CD20 bispecific Nanobody construct (cluster C); entry includes the FLAG3-HIS6 tag; also called T0170061G01-35GS-20CD019C07-FLAG3-HIS6) EVQLVESGGGLVQPGGSLRLSCAASGEIGRINFYRWYRQAPGNQREVVATITIADKTDYADSAKGRFTISRDESRNMVYLQMSSLKPEDTAVYFCHAGSRLYPYDYWGQGTLVTVSSGGGGSGGGGSGGGGSGGGGSGGGGSGGGGSGGGGSEVQLVESGGGLVQPGGSLRLSCTFSGGTFSSYTMGWFRQAPGKEREFVAEVRWGGVTTYSNSLKDRFSISEDSVKNAVYLQMNSLKPEDTAVYYCAAVRQMYMTVVPDYWGQGTLVTVSSGAADYKDHDGDYKDHDIDYKDDDDKGAAHHHHHH |  |  |  | 4.1 | 2.7 | > 100 | 21 |  |  |  |  | 
7 | T017000042 (bispecific antibody, TCR x CD20 bispecific Nanobody construct (cluster A); entry includes the FLAG3-HIS6 tag; also called T0170055A02-35GS-20CD019C07-FLAG3-HIS6) EVQLVESGGGLVQPGGSLRLSCAASGDVHKINILGWYRQAPAKEREMVAHITIGDATDYADSAKGRFTISRDEAKNMVYLQMNSLKPEDTAVYFCRAYSRIYPYNYWGQGTLVTVSSGGGGSGGGGSGGGGSGGGGSGGGGSGGGGSGGGGSEVQLVESGGGLVQPGGSLRLSCTFSGGTFSSYTMGWFRQAPGKEREFVAEVRWGGVTTYSNSLKDRFSISEDSVKNAVYLQMNSLKPEDTAVYYCAAVRQMYMTVVPDYWGQGTLVTVSSGAADYKDHDGDYKDHDIDYKDDDDKGAAHHHHHH |  |  |  | 4.2 | 5.7 | 230 | 20 | 0.17 | 0.89 |  |  | 
8 | T017000074 (bispecific antibody, TCR x CD20 bispecific Nanobody construct (cluster A); entry includes the FLAG3-HIS6 tag; also called T0170056G05-35GS-20CD019C07-FLAG3-HIS6) EVQLVESGGGLVQPGGSLRLSCVASGDVHKINFLGWYRQAPGKEREKVAHISIGDQTDYADSAKGRFTISRDESKNMVYLQMNSLKPEDTAVYFCRAFSRIYPYDYWGQGTLVTVSSGGGGSGGGGSGGGGSGGGGSGGGGSGGGGSGGGGSEVQLVESGGGLVQPGGSLRLSCTFSGGTFSSYTMGWFRQAPGKEREFVAEVRWGGVTTYSNSLKDRFSISEDSVKNAVYLQMNSLKPEDTAVYYCAAVRQMYMTVVPDYWGQGTLVTVSSGAADYKDHDGDYKDHDIDYKDDDDKGAAHHHHHH |  |  |  | 1.5 | 0.92 | 190 | 16 | 0.24 | 0.12 |  |  | 
